From patent US20250163167A1 (SYNTHEKINE, published 2025)
One block for each binder: values may come before it.

Legend:
[1] = target: T1, hIL10Ra-his (Sino Biological, Catalog#10419) (human, UniProt Q13651 22-235); assay: SPR Biacore T200; biotinylated dual VHH captured on CAP biotin chip, hIL10Ra-his analyte; kon, koff and Rmax printed N/A
T1 construct: Bought; also called Sino Biological cat#10419-H08H; not shown: C-terminal poly-His tag
T1 sequence: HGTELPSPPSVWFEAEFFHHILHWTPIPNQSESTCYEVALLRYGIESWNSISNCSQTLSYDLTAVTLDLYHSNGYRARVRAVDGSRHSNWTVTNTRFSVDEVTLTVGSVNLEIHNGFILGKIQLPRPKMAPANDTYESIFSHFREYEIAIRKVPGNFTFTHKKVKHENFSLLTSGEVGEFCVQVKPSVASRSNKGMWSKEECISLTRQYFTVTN

[2] = target: T2, hIL10Rb-his (Sino Biological, Catalog#10945) (human, UniProt Q08334 20-220); assay: SPR; ratio of experimental to calculated Rmax
T2 construct: Bought; also called Sino Biological cat#10945-H08H; not shown: C-terminal poly-His tag
T2 sequence: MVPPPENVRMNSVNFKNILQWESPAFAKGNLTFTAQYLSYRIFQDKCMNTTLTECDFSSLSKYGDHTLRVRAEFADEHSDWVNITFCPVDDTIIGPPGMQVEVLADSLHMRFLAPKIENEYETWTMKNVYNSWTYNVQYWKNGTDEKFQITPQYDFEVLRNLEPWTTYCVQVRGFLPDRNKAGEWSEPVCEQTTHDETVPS

[3] = target: T2, hIL10Rb-his (Sino Biological, …); assay: SPR Biacore T200; biotinylated dual VHH captured on CAP biotin chip, hIL10Rb-his analyte; 1:1 Langmuir fit
[4] = target: T2, hIL10Rb-his (Sino Biological, …); assay: SPR Biacore T200; mono-Fc VHH captured on Protein A chip, hIL10Rb-his analyte; 1:1 Langmuir fit (row flagged: inaccurate fit)
Text: To confirm and evaluate binding affinities of the binding of the hIL10Rb sdAbs, a representative example from each clonotype generated was selected for evaluation of binding via SPR. […] RMAX<100 RU indicates surface density compatible with kinetics analysis. Calculated Rmax values were generated using the equation: Rmax=Load (RU)×valency of ligand×(Molecular weight of analyte/Molecular weight of ligand). Surface activity was defined as the ratio of experimental/calculated Rmax.
One representative example from each clonotype of IL10a generated in accordance with Examples 1-3 was selected for evaluation of binding via SPR as follows. […] All experiments were conducted in 10 mM Hepes, 150 mM NaCl, 0.05% (v/v) Polysorbate 20 (PS20) and 3 mM EDTA (HBS-EP+ buffer) on a Biacore T200 instrument equipped with a Protein A derivatized sensor chip (Cytiva). Mono-Fc VHH ligands were flowed at 5 μl/min for variable time ranging from 18 to 300 seconds, reaching the capture loads listed in the tables below. Following ligand capture, injections of a 2-fold dilution series of the extracellular domain of the […] modified to incorporate a C-terminal poly-His sequence, typically comprising at least five concentrations between 1 μM and 1 nM, were performed in either high performance or single cycle kinetics mode. Surface regeneration was achieved by flowing 10 mM glycine-HCl, pH 1.5 (60 seconds, 50 μL/min).

Kd [1]: < 5 nM
Activity [2]: 34%
Kd [3]: 2.9 nM
koff [3]: 0.00045 s⁻¹
kon [3]: 160000 M⁻¹ s⁻¹
B1: hIL10Ra_VHH17-hIL10Rb_VHH16 biotin (bispecific antibody)
chain: QVQLQESGGGSVQAGGSLRLSCAASGYSNCSYDMTWYRQAPGKEREFVSAIHSDGSTRYADSVKGRFFISQDNAKNTVYLQMNSLKPEDTAMYYCKTDPLHCRAHGGSWYSVRANYWGQGTQVTVSSGGGSQVQLQESGGGSVEAGGSLRLSCAASGYTHSSYCMGWFRQAPGKEREGVAAIDVDGSTTYADSVKGRFTISKDNAKNTLYLQMNSLKPEDTGMYYCAAEFADCSSNYFLPPGAVRYWGQGTQVTVSS
modifications: conjugated to biotin (site not stated)

Kd [4]: 7540 nM
koff [4]: 0.0221 s⁻¹
kon [4]: 2930 M⁻¹ s⁻¹
B2: hIL-10Rb_VHH16 Mono-Fc (Fc fusion)
chain: QVQLQESGGGSVEAGGSLRLSCAASGYTHSSYCMGWFRQAPGKEREGVAAIDVDGSTTYADSVKGRFTISKDNAKNTLYLQMNSLKPEDTGMYYCAAEFADCSSNYFLPPGAVRYWGQGTQVTVSS
notes: Mono-Fc VHH captured on Protein A; not shown: mono-Fc part
